According to paper PMC6028098, “The N-terminal region of photocleavable peptides that bind HLA-DR1 determines the kinetics of fragment release” (PLoS ONE, 2018):

Molecular target: HLA-DR1 (DRA*01:01/DRB1*01:01) extracellular domain (human)
Assay: fluorescence polarisation

Substance	IC50
Ac-photoHA photocleavable peptide (Ac-PRYVKxNTLRLAT)	134 nM
Ac-photoHAΔ1–2 photocleavable peptide (Ac-YVKxNTLRLAT)	227 nM
HA peptide (unlabeled, non-photocleavable), HA306-318-derived	40 nM
photoHA photocleavable peptide (PRYVKxNTLRLAT)	92 nM
photoHAΔ1–2 photocleavable peptide (YVKxNTLRLAT)	1040 nM
